{"source": "paper PMC5955915", "key": {"[1]": {"target": "BG505 NFL.664 (native flexibly linked, cleavage-independent soluble HIV Env trimer) (HIV-1 isolate BG505 (clade A))", "test": "crystal structure"}, "[2]": {"target": "BG505 NFL.664 (native flexibly linked, cleavage-independent soluble HIV Env trimer) (HIV-1 isolate BG505 (clade A))", "test": "cryo-EM structure"}, "DSC": {"test": "DSC", "details": "glycan changed form; control: BG505 NFL.664 from HEK 293F, natural glycoforms"}, "BG505 SOSIP.664": {"target": "BG505 SOSIP.664", "test": "BLI"}}, "data": [{"substance": "BG505 NFL.664 (native flexibly linked, cleavage-independent soluble HIV Env trimer)", "values": [{"measurement": "stoichiometry N", "setting": "[1]", "result": 3}, {"measurement": "stoichiometry N", "setting": "[2]", "result": 3}]}, {"substance": "BG505 NFL.664 Env trimer: kifunensine and swainsonine (oligomannose only)", "values": [{"measurement": "stability_or_folding, Tm", "setting": "DSC", "result": "no change, 66.6 vs 65.8"}]}, {"substance": "PGT121 Fab", "values": [{"measurement": "Kd", "setting": "BG505 SOSIP.664", "result": 58.5, "unit": "nM"}, {"measurement": "koff", "setting": "BG505 SOSIP.664", "result": 0.00033, "unit": "s⁻¹"}]}, {"substance": "PGT124 Fab", "values": [{"measurement": "Kd", "setting": "BG505 SOSIP.664", "result": 38.3, "unit": "nM"}, {"measurement": "koff", "setting": "BG505 SOSIP.664", "result": 0.00059, "unit": "s⁻¹"}]}]}
